Data from publication PMC3834196, “High Resolution Crystal Structure of Human β-Glucuronidase Reveals Structural Basis of Lysosome Targeting” (PLoS ONE, 2013).

Molecular target: the molecule itself
Experiment: crystal structure; vapor diffusion, 50 mM Tris pH 7.5, 15% MPD, 25°C; four monomers (A, B, D, E) in the asymmetric unit; refined to 1.7 Å

B1: Human β-glucuronidase (enzyme, UniProt P08236 23-651, looked up)
chain: LQGGMLYPQESPSRECKELDGLWSFRADFSDNRRRGFEEQWYRRPLWESGPTVDMPVPSSFNDISQDWRLRHFVGWVWYEREVILPERWTQDLRTRVVLRIGSAHSYAIVWVNGVDTLEHEGGYLPFEADISNLVQVGPLPSRLRITIAINNTLTPTTLPPGTIQYLTDTSKYPKGYFVQNTYFDFFNYAGLQRSVLLYTTPTTYIDDITVTTSVEQDSGLVNYQISVKGSNLFKLEVRLLDAENKVVANGTGTQGQLKVPGVSLWWPYLMHERPAYLYSLEVQLTAQTSLGPVSDFYTLPVGIRTVAVTKSQFLINGKPFYFHGVNKHEDADIRGKGFDWPLLVKDFNLLRWLGANAFRTSHYPYAEEVMQMCDRYGIVVIDECPGVGLALPQFFNNVSLHHHMQVMEEVVRRDKNHPAVVMWSVANEPASHLESAGYYLKMVIAHTKSLDPSRPVTFVSNSNYAADKGAPYVDVICLNSYYSWYHDYGHLELIQLQLATQFENWYKKYQKPIIQSEYGAETIAGFHQDPPLMFTEEYQKSLLEQYHLGLDQKRRKYVVGELIWNFADFMTEQSPTRVLGNKKGIFTRQRQPKSAAFLLRERYWKIANETRYPHSVAKSQCLENSLFT
modifications: N-linked oligosaccharide at Asn173 (six mannose, one β-D-mannose, three N-acetyl glucosamine); single N-acetyl-glucopyranose at Asn272 (as seen in the electron density)
notes: β-glucuronidase, human, UniProt P08236; secreted enzyme; the final model holds residues 22 to 631 of each subunit; Homotetramer (subunits A, B, D, E) in the crystal; also called GUS; human GUS; source: CHO-K1, stably transfected, secreted
stoichiometry N: 4
